# T1: translocated intimin receptor (Tir) of EPEC, delivered to HEp-2 cells (EPEC (strain JPN15.96), UniProt B7UM99 1-550)
# T1 sequence: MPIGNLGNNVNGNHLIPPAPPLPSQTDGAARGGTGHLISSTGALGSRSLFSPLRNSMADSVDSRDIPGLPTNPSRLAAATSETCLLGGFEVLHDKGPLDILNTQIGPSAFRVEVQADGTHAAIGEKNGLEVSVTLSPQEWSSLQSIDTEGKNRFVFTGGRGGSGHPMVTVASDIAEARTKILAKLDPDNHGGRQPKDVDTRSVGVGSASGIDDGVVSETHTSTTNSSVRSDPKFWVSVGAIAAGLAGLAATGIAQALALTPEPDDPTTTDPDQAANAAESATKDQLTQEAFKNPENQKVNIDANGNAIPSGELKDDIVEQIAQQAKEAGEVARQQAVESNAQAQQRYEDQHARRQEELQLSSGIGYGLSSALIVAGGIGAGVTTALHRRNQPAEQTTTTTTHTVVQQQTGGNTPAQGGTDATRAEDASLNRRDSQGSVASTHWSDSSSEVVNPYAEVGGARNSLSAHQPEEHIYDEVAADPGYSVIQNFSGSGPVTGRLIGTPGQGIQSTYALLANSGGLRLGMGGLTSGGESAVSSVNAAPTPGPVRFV
# Target: T1, translocated intimin receptor (Tir) of …
# Test: bacterial adherence to Tir-primed cells
binder,measurement,value
EHEC intimin (natural protein) NGENYFKLGSDSKLLTHDSYQNRLFYTLKTGETVADLSKSQDINLSTIWSLNKHLYSSESEMMKAAPGQQIILPLKKLPFEYSALPLLGSAPLVAAGGVAGHTNKLTKMSPDVTKSNMTDDKALNYAAQQAASLGSQLQSRSLNGDYAKDTALGIAGNQASSQLQAWLQHYGTAEVNLQSGNNFDGSSLDFLLPFYDSEKMLAFGQVGARYIDSRFTANLGAGQRFFLPANMLGYNVFIDQDFSGDNTRLGIGGEYWRDYFKSSVNGYFRMSGWHESYNKKDYDERPANGFDIRFNGYLPSYPALGAKLIYEQYYGDNVALFNSDKLQSNPGAATVGVNYTPIPLVTMGIDYRHGTGNENDLLYSMQFRYQFDKSWSQQIEPQYVNELRTLSGSRYDLVQRNNNIILEYKKQDILSLNIPHDINGTEHSTQKIQLIVKSKYGLDRIVWDDSALRSQGGQIQHSGSQSAQDYQAILPAYVQGGSNIYKVTARAYDRNGNSSNNVQLTITVLSNGQVVDQVGVTDFTADKTSAKADNADTITYTATVKKNGVAQANVPVSFNIVSGTATLGANSAKTDANGKATVTLKSSTPGQVVVSAKTAEMTSALNASAVIFFDQTKASITEIKADKTTAVANGKDAIKYTVKVMKNGQPVNNQSVTFSTNFGMFNGKSQTQATTGNDGRATITLTSSSAGKATVSATVSDGAEVKATEVTFFDELKIDNKVDIIGNNVRGELPNIWLQYGQFKLKASGGDGTYSWYSENTSIATVDASGKVTLNGKGSVVIKATSGDKQTVSYTIKAPSYMIKVDKQAYYADAMSICKNLLPSTQTVLSDIYDSWGAANKYSHYSSMNSITAWIKQTSSEQRSGVSSTYNLITQNPLPGVNVNTPNVYAVCVE,fold binding over C. rodentiumΔeae,~20 fold

# Reference: article PMC3269026 (Frontiers in Microbiology, 2012)
